Earlier results, collected in patent US20150010606A1, “INTRA-ARTICULAR INJECTION AND IMPLANT ATTACHMENT OF MOLECULE CONSISTING OF LUBRICIN AND EXTRACELLULAR SUPEROXIDE DISMUTASE OR HYALURONIC ACID AND EXTRACELLULAR SUPEROXIDE DISMUTASE” (Arthrex, Inc., priority 2013, published 2015).

B1: Extracellular superoxide dismutase [Cu—Zn] (protein, UniProt P08294 19-240, looked up)
Extracellular superoxide …: WTGEDSAEPNSDSAEWIRDMYAKVTEIWQEVMQRRDDDGALHAACQVQPSATLDAAQPRVTGVVLFRQLAPRAKLDAFFALEGFPTEPNSSSRAIHVHQFGDLSQGCESTGPHYNPLAVPHPQHPGDFGNFAVRDGSLWRYRAGLAASLAGPHSIVGRAVVVHAGEDDLGRGGNQASVENGNAGRRLACCVVGVCGPGLWERQAREHSERKKRRRESECKAA

Experiments:
[1] = tested on: osteoarthritis; conditions: intra-articular injection; human clinical studies; compared to a placebo control
[2] = tested on: collagen-induced arthritis; conditions: mice with collagen-induced arthritis treated with SOD3

| Molecule | treatment of osteoarthritis [1] | histology of the joint [2] | joint swelling and deformity [2] |
| --- | --- | --- | --- |
| SOD derived from bovine erythrocytes: superoxide dismutase derived from bovine erythrocytes, injected intra-articularly to treat osteoarthritis | significant success when compared to a placebo control | – | – |
| B1 | – | less destruction of cartilage and bone, less infiltration of mononuclear cells, and less proliferation of synovial cells | suppression of joint swelling and deformity |
